The target in the test is ATP synthase subunit c (bovine), P32876. Conditions: remark: other sources report otherwise.

B1: ATP synthase subunit c, P32876 62-136 (natural protein)
chain: DIDTAAKFIGAGAATVGVAGSGAGIGTVFGSLIIGYARNPSLKQQLFSYAILGFALSEAMGLFCLMVAFLILFAM
modifications: here or on the partner: trimethyllysine at position 43; trimethyllysine at position 43
As for B1, the stoichiometry N is 8.
